According to patent US20190389923A1 (BIORION TECHNOLOGIES B V, published 2019):
Bridge positions count the residues as written; N and C are the ends. Ends that are not written are not given here.

Columns and labels:
[1] = molecular target: T1, PDGF-beta receptor on mouse 3T3 fibroblasts (mouse, UniProt P05622 32-1098); assay: FITC-BiPPB on mouse 3T3 fibroblasts, fluorescence microscopy
T1 construct: whole, on cells; also called PDGFß-receptor; PDGF-receptor
Protocol: (§1) Cells were seeded in the 8-well glass plates (Lab-Tek, Nunc, Naperville, Ill.) at 30,000 cells/well in the culture medium. […] After 2 h, cells were washed 3 to 4 times with cold PBS and fixed with 4% paraformaldehyde. The nuclei were counterstained with DAPI and mounted in citifluor (anti-fade reagent) and visualized under fluorescent microscope.
(§2) Similar binding experiments were performed in primary freshly isolated human myofibroblasts, mouse 3T3 fibroblasts and human hepatic stellate cells (LX2).

[2] = molecular target: T2, PDGF-beta receptor on human cells (primary human myofibroblasts; human hepatic stellate cells LX2) (human, UniProt P09619 33-1106); assay: FITC-BiPPB on primary freshly isolated human myofibroblasts, fluorescence microscopy
T2 construct: whole, on cells; also called PDGFß-receptor; PDGF-βR
T2 sequence (P09619 33-1106): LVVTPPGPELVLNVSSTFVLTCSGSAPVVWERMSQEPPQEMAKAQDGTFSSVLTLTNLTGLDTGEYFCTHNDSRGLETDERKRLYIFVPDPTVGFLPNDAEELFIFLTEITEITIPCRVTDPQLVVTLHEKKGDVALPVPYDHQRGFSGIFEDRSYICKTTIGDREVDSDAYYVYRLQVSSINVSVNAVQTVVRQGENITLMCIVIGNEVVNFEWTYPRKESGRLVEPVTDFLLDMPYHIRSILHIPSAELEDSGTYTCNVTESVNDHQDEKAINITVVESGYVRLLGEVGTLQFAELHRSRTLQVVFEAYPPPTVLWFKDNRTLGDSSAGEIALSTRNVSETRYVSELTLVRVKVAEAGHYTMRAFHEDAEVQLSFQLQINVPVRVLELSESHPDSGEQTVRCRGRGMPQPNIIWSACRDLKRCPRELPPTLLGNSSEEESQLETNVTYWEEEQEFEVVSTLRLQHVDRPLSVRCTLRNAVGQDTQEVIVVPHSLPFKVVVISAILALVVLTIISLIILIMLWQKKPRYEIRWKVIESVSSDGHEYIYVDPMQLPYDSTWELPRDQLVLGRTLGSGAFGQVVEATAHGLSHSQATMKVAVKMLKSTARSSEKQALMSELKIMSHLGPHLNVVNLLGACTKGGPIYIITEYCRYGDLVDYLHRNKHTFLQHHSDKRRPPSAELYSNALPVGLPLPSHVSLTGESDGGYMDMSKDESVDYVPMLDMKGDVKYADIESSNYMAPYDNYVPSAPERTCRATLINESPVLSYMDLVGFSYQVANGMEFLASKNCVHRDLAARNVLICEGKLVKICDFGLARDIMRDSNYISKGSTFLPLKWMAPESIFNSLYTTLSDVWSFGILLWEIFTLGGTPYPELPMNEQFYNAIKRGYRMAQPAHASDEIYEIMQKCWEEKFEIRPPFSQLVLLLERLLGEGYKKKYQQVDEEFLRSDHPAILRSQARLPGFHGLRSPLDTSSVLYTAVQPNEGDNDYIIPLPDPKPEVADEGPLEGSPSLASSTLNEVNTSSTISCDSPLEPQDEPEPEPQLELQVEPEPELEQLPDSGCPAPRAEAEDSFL
Protocol: as §1, §2

[3] = molecular target: T3, PDGF-beta receptor on primary freshly isolated rat hepatic stellate cells (rat, UniProt Q05030 32-1097); assay: FITC-BiPPB on primary rat hepatic stellate cells, fluorescence microscopy
T3 construct: whole, on cells; also called PDGFß-receptor; PDGF-βR
T3 sequence (Q05030 32-1097): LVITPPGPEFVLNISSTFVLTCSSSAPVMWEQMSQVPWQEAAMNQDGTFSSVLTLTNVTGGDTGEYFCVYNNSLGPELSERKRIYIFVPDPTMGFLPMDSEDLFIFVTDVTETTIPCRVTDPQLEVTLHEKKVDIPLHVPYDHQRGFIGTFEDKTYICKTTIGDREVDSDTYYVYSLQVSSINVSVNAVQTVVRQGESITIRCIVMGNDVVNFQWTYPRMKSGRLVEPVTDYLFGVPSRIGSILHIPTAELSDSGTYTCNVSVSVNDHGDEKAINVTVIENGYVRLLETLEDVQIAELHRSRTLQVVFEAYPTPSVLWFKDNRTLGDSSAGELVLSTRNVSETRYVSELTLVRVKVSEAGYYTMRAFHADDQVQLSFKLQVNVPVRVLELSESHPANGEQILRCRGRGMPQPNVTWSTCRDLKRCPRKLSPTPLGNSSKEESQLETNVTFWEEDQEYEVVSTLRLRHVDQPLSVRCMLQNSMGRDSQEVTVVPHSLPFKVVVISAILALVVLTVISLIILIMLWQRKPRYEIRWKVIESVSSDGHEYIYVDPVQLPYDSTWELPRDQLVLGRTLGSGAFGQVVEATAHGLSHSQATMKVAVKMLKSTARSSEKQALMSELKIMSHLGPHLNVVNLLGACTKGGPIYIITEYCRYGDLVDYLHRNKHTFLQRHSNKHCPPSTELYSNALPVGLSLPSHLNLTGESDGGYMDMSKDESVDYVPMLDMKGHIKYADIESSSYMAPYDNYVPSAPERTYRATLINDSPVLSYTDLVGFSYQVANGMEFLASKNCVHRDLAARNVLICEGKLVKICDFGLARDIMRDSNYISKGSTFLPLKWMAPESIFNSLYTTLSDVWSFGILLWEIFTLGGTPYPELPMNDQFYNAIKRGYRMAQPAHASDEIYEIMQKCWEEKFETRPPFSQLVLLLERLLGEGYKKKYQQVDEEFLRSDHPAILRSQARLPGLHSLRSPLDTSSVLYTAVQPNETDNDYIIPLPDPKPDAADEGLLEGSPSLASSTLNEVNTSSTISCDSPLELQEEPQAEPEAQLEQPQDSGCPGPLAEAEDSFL
Protocol: as §1

T1 sequence (P05622 32-1098): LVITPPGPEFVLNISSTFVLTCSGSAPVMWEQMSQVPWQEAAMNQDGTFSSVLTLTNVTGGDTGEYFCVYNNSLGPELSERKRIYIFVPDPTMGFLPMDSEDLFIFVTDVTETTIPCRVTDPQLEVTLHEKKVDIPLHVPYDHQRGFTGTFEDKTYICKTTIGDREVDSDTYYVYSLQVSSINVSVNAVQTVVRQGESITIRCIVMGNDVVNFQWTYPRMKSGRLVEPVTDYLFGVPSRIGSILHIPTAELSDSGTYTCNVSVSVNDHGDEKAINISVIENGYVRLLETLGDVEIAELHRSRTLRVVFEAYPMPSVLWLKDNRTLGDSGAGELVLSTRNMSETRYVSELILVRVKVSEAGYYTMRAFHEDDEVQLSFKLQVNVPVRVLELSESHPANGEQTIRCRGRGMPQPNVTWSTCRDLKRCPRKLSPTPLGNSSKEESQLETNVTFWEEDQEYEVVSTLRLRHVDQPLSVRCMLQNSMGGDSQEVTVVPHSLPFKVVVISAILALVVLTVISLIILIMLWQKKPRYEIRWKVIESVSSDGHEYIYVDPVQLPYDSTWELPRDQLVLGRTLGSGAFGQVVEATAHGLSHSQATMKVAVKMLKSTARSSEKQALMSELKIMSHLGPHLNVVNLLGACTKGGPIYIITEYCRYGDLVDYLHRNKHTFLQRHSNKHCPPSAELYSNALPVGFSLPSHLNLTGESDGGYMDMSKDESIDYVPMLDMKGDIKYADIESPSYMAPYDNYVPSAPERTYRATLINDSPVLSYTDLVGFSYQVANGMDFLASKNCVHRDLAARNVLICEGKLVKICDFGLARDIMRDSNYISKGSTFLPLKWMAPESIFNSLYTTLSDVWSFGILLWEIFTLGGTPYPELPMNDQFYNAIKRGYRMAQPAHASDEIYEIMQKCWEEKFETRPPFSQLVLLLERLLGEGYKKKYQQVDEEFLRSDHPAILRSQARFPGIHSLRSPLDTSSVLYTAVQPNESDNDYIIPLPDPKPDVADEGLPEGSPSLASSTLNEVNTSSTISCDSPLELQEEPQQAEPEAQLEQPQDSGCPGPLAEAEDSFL

binding result [1]: binds | binding result [2]: binds | binding result [3]: binds
B1: BiPPB (bicyclic PDGF-beta-receptor binding peptide), C(1)SRNLIDC(1)GGGDGGC(2)SRNLIDC(2), FITC-labelled (peptide)
peptide: CSRNLIDCGGGDGGCSRNLIDC
modifications: disulfide 1-8, 15-22; also: FITC label (site not given here)
notes: Used on primary rat hepatic stellate cells; also called FITC-coupled BiPPB
